The target in the assay is T1, human immunoglobulin-like transcript 3 (ILT3) (human, UniProt Q8NHJ6 22-448).
T1 construct: whole, on cells; also called LILRB4; LIR5
The assay is described as follows: receptor occupancy in blood samples of trial participants dosed in vivo (Q3W).

B1: Humanized anti-ILT3 mAb (52B8 VH1 M64V/VL5 N34Q) IgG4 S228P/Kappa (antibody, V domains shown)
VH: EVQLVESGGGLVQPGGSLRLSCAASGFTFSNYGMSWVRQAPGKGLEWVATISGGGDYTNYPDSVRGRFTISRDNAKNSLYLQMNSLRAEDTAVYYCGRRLWFRSLYYAMDYWGQGTLVTVSS
VL: DIQLTQSPSSLSASVGDRVTITCRASEKVDSFGQSFMHWYQQKPGKAPKLLIYLTSNLDSGVPSRFSGSGSGTDFTLTISSLQPEDFATYYCQQNNEDPYTFGQGTKLEIKR
notes: also called mAb number 46; mAb No. 46
For B1, the binding result is given as “binds”.

Values taken from patent publication US20240317854A1 (Merck Sharp & Dohme, published 2024).
